T1: cynomolgus monkey Siglec15-his protein (cynomolgus monkey)
T1 construct: In house made; also called Cynomolgus Siglec15-his; cynomolgus Siglec15
T1 chain: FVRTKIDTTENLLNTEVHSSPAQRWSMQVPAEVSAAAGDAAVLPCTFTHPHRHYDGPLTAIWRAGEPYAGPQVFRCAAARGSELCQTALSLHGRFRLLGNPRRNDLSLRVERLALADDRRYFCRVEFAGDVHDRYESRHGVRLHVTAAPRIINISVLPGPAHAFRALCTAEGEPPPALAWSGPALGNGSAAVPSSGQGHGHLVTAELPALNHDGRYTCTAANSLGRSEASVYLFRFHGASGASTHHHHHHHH

T2: recombinant human Siglec15-his protein (human, UniProt Q6ZMC9 20-263)
T2 construct: In house made; Biotin-labeled in the capture ELISA
T2 sequence: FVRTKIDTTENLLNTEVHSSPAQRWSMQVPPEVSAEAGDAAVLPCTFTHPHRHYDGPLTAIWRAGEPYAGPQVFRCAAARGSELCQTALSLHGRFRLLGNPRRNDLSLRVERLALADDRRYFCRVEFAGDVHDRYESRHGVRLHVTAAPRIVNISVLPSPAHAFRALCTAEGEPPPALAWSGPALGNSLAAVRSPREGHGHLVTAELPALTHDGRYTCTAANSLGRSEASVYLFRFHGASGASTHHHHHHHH


How the values were obtained:
[1] = target: T1, cynomolgus monkey Siglec15-his protein; assay: indirect ELISA on coated cynomolgus Siglec15-his
Description: The anti-Siglec15 antibodies' cross-reactions to cynomolgus or mouse Siglec15 proteins were measured. Briefly, 96-well micro plates were coated with 100 μl of 2 μg/ml cynomolgus Siglec15-his protein (in house made with SEQ ID NO: 21), or 2 μg/ml mouse Siglec15-his protein (in house made with SEQ ID NO: 22) in carbonate/bicarbonate buffer (pH 9.6) for 2 hours at 37° C. ELISA plates were washed once with wash buffer (PBS+0.05% v/v Tween-20, PBST) and then blocked with 200 μl/well blocking buffer (5% w/v non-fatty milk in PBST) overnight at 4° C. Plates were washed 4 times and incubated with 100 μl serially diluted anti-Siglec15 antibodies of the disclosure or controls (starting at 66.7 nM, 5-fold serial dilution in PBST with 2.5% w/v non-fatty milk) for 40 minutes at 37° C. ELISA plates were washed 4 times again and incubated with Peroxidase AffiniPure Goat Anti-Human IgG, F(ab)₂ fragment specific (1:5000 dilution in PBST buffer, Jackson Immunoresearch, Cat #109-035-097, 100 μl/well) for 40 minutes at 37° C. After a final wash, plates were incubated with 100 μl/well TMB (Innoreagents, Cat #TMB-S-002). The reaction was stopped 4 minutes later at room temperature with 50 μl 1M H₂SO₄, and the absorbance of each well was read on a microplate reader using dual wavelength mode with 450 nm for TMB and 630 nm as the reference wavelength, then the OD (450-630) values were plotted against antibody concentration. Data was analyzed using Graphpad Prism software and EC₅₀ values were reported.

[2] = target: T2, recombinant human Siglec15-his protein; assay: SPR Biacore T200, antibody captured by anti-human IgG, antigen as analyte, 1:1 fit
Description: (§1) Briefly, goat anti-human IgG (GE healthcare, Cat #BR100839, Human Antibody Capture Kit) was covalently linked to a CM5 chip (carboxy methyl dextran coated chip, GE healthcare, Cat #BR-1005-30) via primary amines, using a standard amine coupling kit provided by Biacore (GE healthcare, Pittsburgh, Pa., USA). Un-reacted moieties on the biosensor surface were blocked with ethanolamine. Then, purified anti-Siglec15 antibodies of the disclosure at the concentration of 13.3 nM and an anti-Siglec15 benchmark (ch5G12, also referred to as BM, see U.S. Patent Publication No. 20190202912A1, amino acid sequences of the heavy chain and light chain set forth in SEQ ID NOs: 24 and 25, respectively) at 13.3 nM, were respectively flowed onto the chip at a flow rate of 10 μL/min. Then, serially diluted recombinant human Siglec15-his protein (in house made, amino acid sequence set forth in SEQ ID NO: 20) or cynomolgus monkey Siglec15-his protein (in house made, amino acid sequence set forth in SEQ ID NO: 21), 2-fold serial dilution in HBS-EP⁺ buffer starting at 80 nM, were respectively flown onto the chip at a flow rate of 30 μL/min. The antigen-antibody association kinetics was followed for 2 minutes and the dissociation kinetics was followed for 10 minutes. The association and dissociation curves were fit to a 1:1 Langmuir binding model using BIAcore evaluation software.

[3] = target: T1, cynomolgus monkey Siglec15-his protein; assay: as above
Description: as §1

| Binder | EC50 [1] [nM] | Kd [2] [nM] | koff [2] [s⁻¹] | kon [2] [M⁻¹ s⁻¹] | Kd [3] [nM] | koff [3] [s⁻¹] | kon [3] [M⁻¹ s⁻¹] |
| --- | --- | --- | --- | --- | --- | --- | --- |
| A1E10G7H9 (antibody, V domains shown, Fully human antibody from transgenic mouse hybridoma) VH: QVQLQESGPGLVKPSGTLSLTCAVSGGSISSSNWWHWVRQPPGKGLEWIGEIYHSGNTNYKPSLKSRVTISVDKSKNQFSLKLSSVTAADTAVYYCARDEGNGWSNAFDIWGQGTMVTVSS VL: ENVLTQSPGTLSLSPGERVTLSCRASQSVSSSYLAWYQQKPGQAPRFLIYGASGGATGIPDRFSGSGSGTDFTLTISRLEPEDFAVYYCQQYGSSPITFGQGTRLEIK | 0.509 |  |  |  |  |  |  |
| anti-Siglec15 benchmark (ch5G12) (antibody, human IgG1, kappa, V domains shown, ch5G12 (US 20190202912A1); also called BM; Siglec15-ch5G9) VH: QVQLQQPGAELVKPGASVKMSCKASGYTFTSYWITWVIQRPGQGLEWIGDIYCGSDTMHYNEKFKNKATLTVDTSSSTAYMQLSSLTSEDSAVYYCARWWDYGSSYDYFDYWGQGTTLTVSS VL: DIKMTQSPSSMYASLGERVTITCKASQDINSYLSWFQQKPGKSPKTLIYRANRLVDGVPSRFSGSGSGQDYSLTISSLEYEDMGIYYCLQYDEFPYTFGGGTKLEIKR | 0.652 | 0.422 | 0.000955 | 2.27e+06 | 0.688 | 0.000781 | 1.13e+06 |
| A2A5C7E8-2 (antibody, human IgG1, kappa, V domains shown, Variant of A2A5C7E8 modified in VH CDR2 (X1 = E)) VH: EVQLVQSGAEVKKPGESLRISCKGSGYSFTTYWISWVRQMPGKGLEWMGLIDPSESYTNYSPSFQGHVTISTDKSISTAYLQWSSLKASDTAMYYCARGGYYGSEEDYWGQGTLVTVSS VL: EIVLTQSPGTLSLSPGERATLSCRASQSVSSSRLAWFQQKSGQAPRLLIFDASSRATGIPDRFSGSGSGTDFTLTISRLEPEDFAVYYCQQYGSSPRTFGQGTKVEFKR |  | 0.164 | 0.000273 | 1.66e+06 | 0.147 | 0.000167 | 1.14e+06 |

Continued by falling Kd [2], values first:

| EC50 [1] [nM] | Kd [2] [nM] | koff [2] [s⁻¹] | kon [2] [M⁻¹ s⁻¹] | Kd [3] [nM] | koff [3] [s⁻¹] | kon [3] [M⁻¹ s⁻¹] | Binder |
| --- | --- | --- | --- | --- | --- | --- | --- |
|  | 0.0396 | 7.46e-05 | 1.88e+06 | 0.0751 | 5.32e-05 | 708000 | A2A5C7E8-3 (antibody, human IgG1, kappa, V domains shown, Variant of A2A5C7E8 modified in VH CDR2 (X2 = K)) VH: EVQLVQSGAEVKKPGESLRISCKGSGYSFTTYWISWVRQMPGKGLEWMGLIDPSDSYTNYSPSFKGHVTISTDKSISTAYLQWSSLKASDTAMYYCARGGYYGSEEDYWGQGTLVTVSS VL: EIVLTQSPGTLSLSPGERATLSCRASQSVSSSRLAWFQQKSGQAPRLLIFDASSRATGIPDRFSGSGSGTDFTLTISRLEPEDFAVYYCQQYGSSPRTFGQGTKVEFKR |
| 0.521 | 0.0383 | 7.45e-05 | 1.94e+06 | 0.0704 | 7.96e-05 | 1.13e+06 | A2A5C7E8 (antibody, V domains shown, Fully human antibody from transgenic mouse hybridoma; also called A2A5C7E8-1) VH: EVQLVQSGAEVKKPGESLRISCKGSGYSFTTYWISWVRQMPGKGLEWMGLIDPSDSYTNYSPSFQGHVTISTDKSISTAYLQWSSLKASDTAMYYCARGGYYGSEEDYWGQGTLVTVSS VL: EIVLTQSPGTLSLSPGERATLSCRASQSVSSSRLAWFQQKSGQAPRLLIFDASSRATGIPDRFSGSGSGTDFTLTISRLEPEDFAVYYCQQYGSSPRTFGQGTKVEFK |
